In US7919233B2, “Motif of the beclin protein which interacts with anti-apoptotic members of the Bcl-2 protein family, and uses” (Les Laboratoires Servier, priority 2005, dated 2011):

Key:
Assay type in all cases: binding
Conditions in all cases: relative to the Beclin peptide according to the invention
Bcl-XL = Bcl-XL (Homo sapiens, UniProt Q07817); assay: Ki by fluorescence polarisation: competition with the Bak BH3 carboxyfluorescein peptide for Bcl-XL
Protocol: (§1) The determination of Ki using fluorescence polarisation consists of measuring the competitive effect of the Beclin peptide on the interaction between the pro-apoptotic Bak peptide and anti-apoptotic members of the Bcl-2 protein family such as Bcl-XL, Bcl-2 or Bcl-W.
(§2) The following reagents are mixed together in the order stated: • a) competitor peptide at a final concentration of from 1 nM to 100 μM; • b) fluorescent peptide ligand (Bak BH3 carboxyfluorescein) at a final concentration of 15 nM; • c) anti-apoptotic member of the Bcl-2 protein family at a final concentration of 100 nM for Bcl-XL and of 1 μM for Bcl-2 and Bcl-W.
(§3) These reagents are dissolved in the interaction buffer (Na2HPO4 20 mM pH 7.4, EDTA 1 mM, NaCl 50 mM and pluronic acid F-68 0.05%).
(§4) The mixture is then incubated for 30 minutes at ambient temperature and the fluorescence polarisation is determined on a Fusion apparatus (Packard) (excitation at 485 nm and reading at 530 nm). The values are given in mP (unit of fluorescence polarisation).
(§5) The protocol for the determination of Ki using fluorescence polarisation is the same as the protocol described above.

Bcl-2 = Bcl-2 (Homo sapiens, UniProt P10415); assay: Ki by fluorescence polarisation: competition with the Bak BH3 carboxyfluorescein peptide for Bcl-2
Chain of Bcl-2 (P10415 whole entry): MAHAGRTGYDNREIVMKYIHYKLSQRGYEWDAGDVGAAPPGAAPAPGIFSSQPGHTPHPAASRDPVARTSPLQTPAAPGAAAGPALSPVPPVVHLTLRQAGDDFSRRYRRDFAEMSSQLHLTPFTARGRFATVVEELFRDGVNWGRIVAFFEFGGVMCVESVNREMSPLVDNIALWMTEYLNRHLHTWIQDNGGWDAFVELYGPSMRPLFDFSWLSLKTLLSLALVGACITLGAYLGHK
Protocol: as §1, §2, §3, §4, §5

Bcl-W = biological target: T1, Bcl-W (Homo sapiens, UniProt Q92843); assay: Ki by fluorescence polarisation: competition with the Bak BH3 carboxyfluorescein peptide for Bcl-W
T1 sequence (Q92843 1-193): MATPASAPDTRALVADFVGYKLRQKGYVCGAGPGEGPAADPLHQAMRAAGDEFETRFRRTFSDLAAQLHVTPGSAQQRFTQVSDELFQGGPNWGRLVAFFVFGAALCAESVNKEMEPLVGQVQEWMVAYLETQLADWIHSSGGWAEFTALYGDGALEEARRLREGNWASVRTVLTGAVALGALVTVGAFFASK
Protocol: as §1, §2, §3, §4, §5

Chain of Bcl-XL (Q07817 whole entry): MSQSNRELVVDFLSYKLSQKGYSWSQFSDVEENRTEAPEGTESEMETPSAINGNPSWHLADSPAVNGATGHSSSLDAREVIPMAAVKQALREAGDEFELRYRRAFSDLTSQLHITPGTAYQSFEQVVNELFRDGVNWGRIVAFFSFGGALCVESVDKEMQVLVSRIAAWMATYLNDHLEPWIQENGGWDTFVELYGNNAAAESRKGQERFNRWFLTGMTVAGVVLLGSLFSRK

GTMENLSRRAKVTGDLFDIMSGQTDV (Mutated Beclin Peptide) [mutant Beclin protein (L116A)]
loss of competitive effect: competitive effect on the interaction between Bak peptide and Bcl-XL (Bcl-XL) | competitive effect on the interaction between Bak peptide and Bcl-2 (Bcl-2) | competitive effect on the interaction between Bak peptide and Bcl-W (Bcl-W)
